Experimental data as given in PMC3414502 (2012).

Molecular target: PLCβ2 (Homo sapiens, UniProt Q00722)
Test: fluorescence titration

Chain of PLCβ2 (Q00722 whole entry): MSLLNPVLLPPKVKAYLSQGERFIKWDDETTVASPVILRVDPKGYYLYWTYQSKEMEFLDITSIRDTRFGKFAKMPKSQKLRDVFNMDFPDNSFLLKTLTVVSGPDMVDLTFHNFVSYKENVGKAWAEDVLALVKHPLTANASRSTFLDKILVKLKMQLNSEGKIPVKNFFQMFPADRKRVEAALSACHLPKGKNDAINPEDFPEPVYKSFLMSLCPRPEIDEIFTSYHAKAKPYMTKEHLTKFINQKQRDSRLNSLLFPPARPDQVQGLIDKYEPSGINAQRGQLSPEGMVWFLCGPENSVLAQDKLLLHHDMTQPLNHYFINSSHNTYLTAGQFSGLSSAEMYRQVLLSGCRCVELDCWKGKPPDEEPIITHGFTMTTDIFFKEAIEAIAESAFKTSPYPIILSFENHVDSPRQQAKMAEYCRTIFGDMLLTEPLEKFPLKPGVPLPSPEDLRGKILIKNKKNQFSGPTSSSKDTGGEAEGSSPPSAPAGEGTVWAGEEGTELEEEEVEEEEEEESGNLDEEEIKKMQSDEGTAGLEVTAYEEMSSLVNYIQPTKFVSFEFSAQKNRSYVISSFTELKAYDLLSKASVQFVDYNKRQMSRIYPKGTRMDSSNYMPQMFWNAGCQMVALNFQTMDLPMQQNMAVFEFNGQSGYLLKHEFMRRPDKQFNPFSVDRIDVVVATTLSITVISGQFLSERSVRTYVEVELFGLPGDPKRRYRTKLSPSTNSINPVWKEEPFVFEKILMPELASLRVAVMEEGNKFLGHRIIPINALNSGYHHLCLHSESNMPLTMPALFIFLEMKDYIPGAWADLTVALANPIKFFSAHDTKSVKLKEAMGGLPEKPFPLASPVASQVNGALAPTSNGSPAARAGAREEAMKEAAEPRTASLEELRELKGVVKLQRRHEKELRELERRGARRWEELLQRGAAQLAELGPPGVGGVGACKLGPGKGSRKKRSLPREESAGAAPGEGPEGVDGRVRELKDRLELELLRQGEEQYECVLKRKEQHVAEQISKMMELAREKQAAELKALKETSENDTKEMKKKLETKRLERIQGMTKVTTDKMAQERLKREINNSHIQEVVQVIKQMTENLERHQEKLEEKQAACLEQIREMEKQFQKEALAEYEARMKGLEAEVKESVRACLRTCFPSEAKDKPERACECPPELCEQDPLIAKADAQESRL

- Kd: 900 pM
B1: Gαq (activated) (protein)
chain: MTLESIMACCLSEEAKEARRINDEIERQLRRDKRDARRELKLLLLGTGESGKSTFIKQMRIIHGSGYSDEDKRGFTKLVYQNIFTAMQAMIRAMDTLKIPYKYEHNKAHAQLVREVDVEKVSAFENPYVDAIKSLWNDPGIQECYDRRREYQLSDSTKYYLNDLDRVADPSYLPTQQDVLRVRVPTTGIIEYPFDLQSVIFRMVDVGGQRSERRKWIHCFENVTSIMFLVALSEYDQVLVESDNENRMEESKALFRTIITYPWFQNSSVILFLNKKDLLEEKIMYSHLVDYFPEYDGPQRDAQAAREFILKMFVDLNPDSDKIIYSHFTCATDTENIRFVFAAVKDTILQLNLKEYNLV
modifications: activated Gαq, with γ-synuclein
